Data taken from patent publication US20140056907A1 (Regeneron, published 2014).
Blank lines part the entries; values can stand above or below the binder they belong to.

How the values were obtained:
human ASIC1 [1] = target: T1, human ASIC1 (human, UniProt P78348 1-528); assay: FACS titration, 3T3/hASIC1 cells
T1 construct: Ion channel subunit expressed on 3T3 (3T3/hASIC1) or HEK293 cells (HEK/hASIC1; HEK293 CL:1F10 transient); also called hASIC1; human ASIC1a
T1 sequence: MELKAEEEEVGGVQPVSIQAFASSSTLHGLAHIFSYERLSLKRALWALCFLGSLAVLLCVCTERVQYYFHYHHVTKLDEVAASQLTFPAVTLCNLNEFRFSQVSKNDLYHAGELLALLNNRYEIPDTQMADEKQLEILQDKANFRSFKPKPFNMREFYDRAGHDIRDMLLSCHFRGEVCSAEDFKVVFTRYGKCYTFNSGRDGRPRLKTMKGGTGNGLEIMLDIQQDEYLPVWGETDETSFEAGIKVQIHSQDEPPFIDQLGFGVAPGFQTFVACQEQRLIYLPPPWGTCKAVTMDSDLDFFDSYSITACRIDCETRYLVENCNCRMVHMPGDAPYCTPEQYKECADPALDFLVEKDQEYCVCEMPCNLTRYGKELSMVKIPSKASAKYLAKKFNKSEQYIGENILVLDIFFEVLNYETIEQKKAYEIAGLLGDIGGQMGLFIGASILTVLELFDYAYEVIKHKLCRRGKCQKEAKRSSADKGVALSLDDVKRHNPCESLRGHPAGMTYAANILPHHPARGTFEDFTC

human ASIC1 [2] = target: T1, human ASIC1; assay: cell-based or functional assay
human ASIC1 [3] = target: T1, human ASIC1; assay: cell-based or functional assay; remark: listed apart in the source
human ASIC3 = target: T2, human ASIC3 (human, UniProt Q9UHC3 1-531); assay: FACS, 3T3/hASIC3 cells, 10 nM antibody
T2 construct: whole, on cells; Expressed on 3T3 cells (3T3/hASIC3) or HEK293 cells (HEK/hASIC3-QCells); also called hASIC3
T2 sequence (looked up): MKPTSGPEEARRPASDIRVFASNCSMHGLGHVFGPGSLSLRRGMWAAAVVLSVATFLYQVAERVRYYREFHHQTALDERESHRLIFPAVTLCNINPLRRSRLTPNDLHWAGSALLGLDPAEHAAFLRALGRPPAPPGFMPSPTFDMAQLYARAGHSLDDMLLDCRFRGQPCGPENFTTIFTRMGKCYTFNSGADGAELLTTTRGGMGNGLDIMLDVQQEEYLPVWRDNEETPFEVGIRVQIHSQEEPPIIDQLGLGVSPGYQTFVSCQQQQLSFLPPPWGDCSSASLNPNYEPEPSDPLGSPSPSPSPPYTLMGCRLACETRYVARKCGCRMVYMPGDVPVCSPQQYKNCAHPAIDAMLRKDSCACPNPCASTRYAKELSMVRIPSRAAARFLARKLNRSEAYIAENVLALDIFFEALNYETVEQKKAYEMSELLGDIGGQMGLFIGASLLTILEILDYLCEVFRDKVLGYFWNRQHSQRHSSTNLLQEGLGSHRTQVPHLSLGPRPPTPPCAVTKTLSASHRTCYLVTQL
Text: For these experiments, four cell lines were constructed: (a) a mouse fibroblast 3T3 cell line stably transfected to overexpress full length human ASIC3 (3T3/hASIC3; amino acids 1-531 of NCBI accession number NP_{—}004760.1), (b) a 3T3 cell line stably transfected to co-express full length human ASIC1a and human ASIC3 (3T3/hASIC1/3; amino acids 1-528 of NCBI accession number NP_{—}001086.2 and amino acids 1-531 of NCBI accession number NP_{—}004760.1), (c) […] a stably transfected 3T3 cell line expressing the full-length mouse ASIC3 channel (3T3/mASIC3; amino acids 1-530 of NCBI accession number NP_{—}892045.2), and (d) a 3T3 cell line stably transfected to co-express full length mouse ASIC1a and mouse ASIC3 (3T3/mASIC1/3; amino acids 1-526 of NCBI accession number NP_{—}033727 and amino acids 1-530 of NCBI accession number NP_{—}892045.2). Antibody binding was determined using flow cytometry (FACS).
To perform the FACS binding experiments, adherent cells were collected with cold Millipore Accutase 3-5 minutes, spun and resuspended in ice-cold FACS buffer (PBS, 2% HI-FBS and 0.09% Na-azide). Anti-ASIC1 antibody at final concentrations of 10 nM was added for 20-30 minutes on ice. Cells were washed with 900 μL ice-cold FACS buffer, spun, and resuspended in 100 μL ice-cold FACS buffer. A secondary antibody which recognizes human Fc (Jackson Immuno Research, #109-136-098) and is conjugated to allophycocyanin, was then added to the cell mixture at a final concentration of 2.5 ug/mL. After incubating for 20 minutes on ice, the cells were washed and resuspended in FACS buffer, then sorted and analyzed on a flow cytometer (FACSCanto II, BD Biosciences, San Jose, Calif.) to determine relative binding by the candidate antibodies to the tested cell lines. Histograms of cells stained with anti-ASIC1 antibodies were compared with those of cells stained with secondary antibody alone. Percentage of ASIC1 signal over secondary antibody alone was calculated using FlowJo software (Tree Star, Ashland, Oreg.).

EC50 (human ASIC1 [1]): 5.4 nM
Current inhibition (%) at 100 nM antibody, Q-Patch, pH 6.0 (human ASIC1 [2]): 100%
apparent IC50, human ASIC1 current, Q-Patch (human ASIC1 [3]): ≤ 10 nM
binding result (human ASIC3): binds
B1: H3M7102N (antibody, V domains shown)
VH: EVQLLASGGGLVQPGGSLRLSCAASGFTFSSFAMSWVRQAPGKGLEWVSGISGSGGSTYYADSVKGRFTISRDNSKNTLYLQMNSLRAEDTAAYYCAKEAYKWQPWGQGIRVTVSS
VL: DIQMTQSPSTLSASVGDRVSITCRASQSISSWLAWYQQKPGKAPKLLIYKASNLDSGVPSRFSGSGSGTDFTLTISSLQPDDFATYYCQQYNSYSYTFGQGTKLEIK
notes: Chimeric: human variable, mouse constant domains; H3M prefix marks the Fc, isotype not spelled out

EC50 (human ASIC1 [1]): 2.6 nM
Current inhibition (%) at 100 nM antibody, Q-Patch, pH 6.0 (human ASIC1 [2]): 85%
apparent IC50, human ASIC1 current, Q-Patch (human ASIC1 [3]): > 10 nM
binding result (human ASIC3): binds
B2: H3M6726N (antibody, V domains shown)
VH: EVQLLESGGVLVQPGGSLRLSCAASGFNFNNYDMSWVRQAPGKGLEWVSVISASGRNTYYADSVKGRFTISRDNSKISLYLQMNSLRPEDTAVYYCAKDHLVHYYYGMDVWGQGTTVTVSS
VL: DIMMTQSPLSLSVTPGEPASISCRSSQSLLHSNGYNYLDWYLQKSGQSPHLLIYLGSNRASGVPDRFSGSGSGTDFTLKISRVEAEDGGVYYCMQALQTPRTFGQGTKVEIK
notes: as for B1
